Results on twelve molecules are retold here after patent publication US20100048468A1 (Amgen, published 2010).

Non-standard residues stand in square brackets, D forms with d. Primed or numbered codes have the meaning given here. No end group written: not given here. Aib′ = alpha aminobutyric acid (source's wording)

The chains are these.
T1: mouse GLP-1 receptor (mouse, UniProt O35659 22-463)
T1 sequence (looked up): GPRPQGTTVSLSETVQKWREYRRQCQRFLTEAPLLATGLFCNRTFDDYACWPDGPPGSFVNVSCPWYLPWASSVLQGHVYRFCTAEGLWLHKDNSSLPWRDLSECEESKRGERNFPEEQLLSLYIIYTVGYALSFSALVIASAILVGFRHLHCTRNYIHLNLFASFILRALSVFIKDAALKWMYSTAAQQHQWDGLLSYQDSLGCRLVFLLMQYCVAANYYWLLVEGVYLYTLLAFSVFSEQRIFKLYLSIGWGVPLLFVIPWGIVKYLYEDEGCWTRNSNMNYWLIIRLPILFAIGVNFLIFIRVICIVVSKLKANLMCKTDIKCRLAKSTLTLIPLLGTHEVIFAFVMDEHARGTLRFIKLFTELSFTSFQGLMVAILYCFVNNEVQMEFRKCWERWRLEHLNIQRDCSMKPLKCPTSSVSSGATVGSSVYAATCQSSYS

The target in one assay is T1, mouse GLP-1 receptor. As to the kind of experiment: cell-based or functional assay.
As for HGEGTFTSDVSSYLEGC(PEG 20 kDa)AAKEFIAWLKNGGPSSGAPPPS [cgGLP-13 (SEQ ID NO: 8 + 20k PEG monomer)], the EC50 mouse stood at 3 nM.

The target in a further assay is T2, human GLP-1 receptor (human, UniProt P43220 24-463). As to the kind of experiment: cell-based or functional assay.
Molecule HGEGTFTSDVSSYLE[Aib′]QAAKEFIAWLVKGRG-NH2 [HGEGT FTSDV SSYLE [Aib]QAAK EFIAW LVKGR G-AMIDE (SEQ ID NO: 15)] displayed an EC50 human of 0.027 nM.
The same measure, in the same setting: for HGEGTFTSDVSSYLE[Aib′]QAAKEFIAWLVKGRGC(mPEG‑maleimide 20 kDa)A-NH2 (also called cgGLP30) [mgGLP32 & mgGLP-20 (SEQ ID NO: 18 + 20k PEG)] the value was 0.13 nM.
Molecule HGEGTFTSDVSSYLE[Aib′]QAAKEFIAWLVKGRGC(mPEG‑maleimide 20 kDa)G-NH2 [mgGLP-16 (SEQ ID NO: 20 + 20k PEG)] yielded an EC50 human of 0.2 nM.

A further assay concerns the target T1, mouse GLP-1 receptor. Nature of the assay: cell-based or functional assay. The source holds these as a separate data set.
In turn, HGEGTFTSDVSSYLE[Aib′]QAAKEFIAWLVKGRG-NH2 [HGEGT FTSDV SSYLE [Aib]QAAK EFIAW LVKGR G-AMIDE (SEQ ID NO: 15)] gave an EC50 mouse of 0.12 nM.
With HGEGTFTSDVSSYLE[Aib′]QAAKEFIAWLVKGRGC(mPEG‑maleimide 20 kDa)A-NH2 (also called cgGLP30) [mgGLP32 & mgGLP-20 (SEQ ID NO: 18 + 20k PEG)], the EC50 mouse stood at 0.84 nM.
The same measure, in the same setting: for HGEGTFTSDVSSYLE[Aib′]QAAKEFIAWLVKGRGC(mPEG‑maleimide 20 kDa)G-NH2 [mgGLP-16 (SEQ ID NO: 20 + 20k PEG)] the value was 1.6 nM.

The next assay deals with T2, human GLP-1 receptor. Nature of the assay: cell-based or functional assay. This is another data set of the same source.
Take MHHHAEGTFTSDVSSYLEGQAAKEFIAWLVKGR (ends and bridges not checked, Not pegylated) [MHH-GLP1 (SEQ ID NO: 258)]: the EC50 human came to 1 nM.
Still for that read-out and setting: the result for MQHAEGTFTSDVSSYLEGQAAKEFIAWLVKGR (ends and bridges not checked, Not pegylated) [MQ-GLP1 (SEQ ID NO: 253)] reads 0.5 nM.
Still for that read-out and setting: for MWHAEGTFTSDVSSYLEGQAAKEFIAWLVKGR (ends and bridges not checked, Not pegylated) [MW-GLP1 (SEQ ID NO: 265)] the value was 0.8 nM; for MMHAEGTFTSDVSSYLEGQAAKEFIAWLVKGR (not fully specified; ends and bridges not checked, Not pegylated) [MM-GLP1 (SEQ ID NO: 267)], 0.5 nM; for MEHAEGTFTSDVSSYLEGQAAKEFIAWLVKGR (Not pegylated) [ME-GLP1 (SEQ ID NO: 264)], 1 nM.
Regarding MKHAEGTFTSDVSSYLEGQAAKEFIAWLVKGR (not fully specified; ends and bridges not checked, Not pegylated) [MK-GLP1 (SEQ ID NO: 255)], the EC50 human is 4 nM.
Still for that read-out and setting: the result for MYHAEGTFTSDVSSYLEGQAAKEFIAWLVKGR (ends and bridges not checked, Not pegylated) [MY-GLP1 (SEQ ID NO: 259)] reads 0.4 nM; that for MLHAEGTFTSDVSSYLEGQAAKEFIAWLVKGR (ends and bridges not checked, Not pegylated) [ML-GLP1 (SEQ ID NO: 262)], 0.7 nM.

For another assay, the target named is T1, mouse GLP-1 receptor. As to the kind of experiment: cell-based or functional assay. The source holds these as a separate data set.
MHHHAEGTFTSDVSSYLEGQAAKEFIAWLVKGR (ends and bridges not checked, Not pegylated) [MHH-GLP1 (SEQ ID NO: 258)]: the EC50 mouse came to 5 nM.
On the same count and under the same terms, the result for MQHAEGTFTSDVSSYLEGQAAKEFIAWLVKGR (ends and bridges not checked, Not pegylated) [MQ-GLP1 (SEQ ID NO: 253)] reads 3 nM; that for MWHAEGTFTSDVSSYLEGQAAKEFIAWLVKGR (ends and bridges not checked, Not pegylated) [MW-GLP1 (SEQ ID NO: 265)], 5 nM.
Still for that read-out and setting: for MMHAEGTFTSDVSSYLEGQAAKEFIAWLVKGR (not fully specified; ends and bridges not checked, Not pegylated) [MM-GLP1 (SEQ ID NO: 267)] the value was 3 nM.
The same measure, in the same setting: for MEHAEGTFTSDVSSYLEGQAAKEFIAWLVKGR (Not pegylated) [ME-GLP1 (SEQ ID NO: 264)] the value was 4 nM; for MKHAEGTFTSDVSSYLEGQAAKEFIAWLVKGR (not fully specified; ends and bridges not checked, Not pegylated) [MK-GLP1 (SEQ ID NO: 255)], 12 nM; for MYHAEGTFTSDVSSYLEGQAAKEFIAWLVKGR (ends and bridges not checked, Not pegylated) [MY-GLP1 (SEQ ID NO: 259)], 1 nM.
Molecule MLHAEGTFTSDVSSYLEGQAAKEFIAWLVKGR (ends and bridges not checked, Not pegylated) [ML-GLP1 (SEQ ID NO: 262)] showed an EC50 mouse of 6 nM.

Another assay has as its target T2, human GLP-1 receptor. As to the kind of experiment: 125I-GLP-1 displacement, membranes of CHOK1 cells expressing human GLP-1 receptor. The protocol:
(§1) Membrane Preparation. […] Cells were sedimented at 1500 rpm for 10 minutes. The resulting pellets were homogenized in 15 mls of ice cold sucrose buffer (25 mM Tris-HCl, 0.32 M Sucrose, 0.25 g/L, sodium azide, pH 7.4) with a motorized, glass fitted, Teflon homogenizer. The homogenate was centrifuged at 48,000×g at 4° C. for 10 minutes, resuspended in 25 ml assay buffer (50 mM Tris-HCl, 5 mM MgCl₂, 10 mg/ml protease-free BSA, 0.1 mg/ml STI, and 0.1 mg/ml Pefabloc, pH 7.4) with a Tissue-Tearor (Biospec Products), then centrifuged again at 48,000×g for 10 minutes. The pellets were homogenized for a third time in 15 ml assay buffer using the Tissue-Tearor and again centrifuged at 48,000×g for 10 minutes. The resulting pellet was resuspended in assay buffer at a wet weight concentration of 4 mg/ml.
Ligand Binding Assay. Binding assays were performed in 96-well U-bottom plates. […] The reaction was terminated by rapid filtration through Unfilter-96 GF/C glass fiber filter plates (FilterMate 196 Packard Harvester, PerkinElmer, Shelton, Conn.) pre-soaked in 0.5% polyethylenimine, followed by three washes with 300 μl of cold 50 mM Tris-HCl, pH 7.4. Bound radioactivity was determined using a TopCount microplate scintillation and luminescence counter (Packard Instrument Company, PerkinElmer, Shelton, Conn.). Nonlinear regression analyses of resulting concentration curves were performed using GraphPad Prism (GraphPad Software, Inc., San Diego, Calif.). […]
Broadly, the IC50 is the point on the concentration scale where inhibition reaches its midpoint. Higher therefore signals weaker potency. Regarding HGEGTFTSDVSSYLE[Aib′]QAAKEFIAWLVKGRG-NH2 [HGEGT FTSDV SSYLE [Aib]QAAK EFIAW LVKGR G-AMIDE (SEQ ID NO: 15)], the IC50 was found to be 3.5 nM.
As for HGEGTFTSDVSSYLE[Aib′]QAAKEFIAWLVKGRGC(mPEG‑maleimide 20 kDa)A-NH2 (also called cgGLP30) [mgGLP32 & mgGLP-20 (SEQ ID NO: 18 + 20k PEG)], the IC50 was 56 nM. This IC50 lies about 16-fold higher than the previous one.
Still for that read-out and setting: the result for HGEGTFTSDVSSYLE[Aib′]QAAKEFIAWLVKGRGC(mPEG‑maleimide 20 kDa)G-NH2 [mgGLP-16 (SEQ ID NO: 20 + 20k PEG)] reads 50 nM.

A further assay has as its target T2, human GLP-1 receptor. The description is as above. The source holds these as a separate data set. The protocol:
as §1
Ligand Binding Assay. Binding assays were performed in 96-well U-bottom plates. […] The reaction was terminated by rapid filtration through Unfilter-96 GF/C glass fiber filter plates (FilterMate 196 Packard Harvester, PerkinElmer, Shelton, Conn.) pre-soaked in 0.5% polyethylenimine, followed by three washes with 300 μl of cold 50 mM Tris-HCl, pH 7.4. Bound radioactivity was determined using a TopCount microplate scintillation and luminescence counter (Packard Instrument Company, PerkinElmer, Shelton, Conn.). Nonlinear regression analyses of resulting concentration curves were performed using GraphPad Prism (GraphPad Software, Inc., San Diego, Calif.).
MHHHAEGTFTSDVSSYLEGQAAKEFIAWLVKGR (ends and bridges not checked, Not pegylated) [MHH-GLP1 (SEQ ID NO: 258)]: the IC50 was determined as 350 nM.
Same read-out and setting: for MQHAEGTFTSDVSSYLEGQAAKEFIAWLVKGR (ends and bridges not checked, Not pegylated) [MQ-GLP1 (SEQ ID NO: 253)] the value was 64 nM; for MWHAEGTFTSDVSSYLEGQAAKEFIAWLVKGR (ends and bridges not checked, Not pegylated) [MW-GLP1 (SEQ ID NO: 265)], 79 nM; for MMHAEGTFTSDVSSYLEGQAAKEFIAWLVKGR (not fully specified; ends and bridges not checked, Not pegylated) [MM-GLP1 (SEQ ID NO: 267)], 100 nM.
On to MEHAEGTFTSDVSSYLEGQAAKEFIAWLVKGR (Not pegylated) [ME-GLP1 (SEQ ID NO: 264)], for which the IC50 was found to be 95 nM.
Regarding MKHAEGTFTSDVSSYLEGQAAKEFIAWLVKGR (not fully specified; ends and bridges not checked, Not pegylated) [MK-GLP1 (SEQ ID NO: 255)], the IC50 came to 760 nM.
On the same count and under the same terms, the result for MYHAEGTFTSDVSSYLEGQAAKEFIAWLVKGR (ends and bridges not checked, Not pegylated) [MY-GLP1 (SEQ ID NO: 259)] reads 57 nM; that for MLHAEGTFTSDVSSYLEGQAAKEFIAWLVKGR (ends and bridges not checked, Not pegylated) [ML-GLP1 (SEQ ID NO: 262)], 160 nM.
